# In the DeepSol protein solubility set:
# Assay: soluble on expression in E. coli; label from the status in PepcDB or PDB records
row,Sequence,soluble on expression in E. coli
1,MKHESTKIPLVIFMHIPKTGGITLRNILDQQYRSEHILRLPQKNKLDNLLQKKGANIKKLQCVYGHHRFGVHEYFQQPFTYITMLRHPVERIISTYYFILQNERNRMHQKVKPLTFEQFVQSTDPDLQVPLTNHQTRYLSGERKPNLNKALQHMDTHFSVVGITELYNESLFIMKKKLGWDHISYQKKNVTKKRKRQTDIGLDTIEIIKRKNPLDLHLYETAKEKLQEHIKRLDSGARKELQQFLQDQNGFGPHGMAGDPLEHHHHHH,soluble
2,MKHLEIELKTLLKKDEYNRLKDQFTGVTPVLQTNYYIDTPDFELREKKVAMRIRTFEDWAELTLKVPQSVGNMEYNQKLQLKDAENYLSKEELPQGLVLDELAKHGIQSKNWQVLGCLTTLRYEMKTAIGLMALDQSRYFDITDYELELEVENHEQGKQDFRQFLEKNQISYQKAPSKLVRFVKSMKNS,not soluble
3,MKHNLNAHEARVIGCLLEKQVTTPEQYPMSLNGLTLACNQKTSRDPVMELSESQVQQTLDFLLKKHLIRSQSGNRVMKYEHRFCNSEFGDLKFSPAEVAVITLLLLRGAQTPGELRTRTNRMYEFADVAETEETLKTLSLREDGPFVVRLAREPGKRESRFMPLFSGDVASSLLAAGEAEENNHTLEANPRETHSFENIALEKTALEARVAQLEQQVIQLSRRLDDVLIQLDDMKKLRVGIVGLGGIAQKAYLPILTQAQGWQLVGAFSPNQAKAQPLCDSYRMRYFSRLDTLAAASDAVFVHSSTASHFQVVHDLLQAGVHVYVDKPLAETREQSEQLIELADKQHLALMVGFNRRFAPLYQQLKQQASSPVSLRMEKHRLSSIGPHDLGFTLLDDYLHVVDTALWLGGEGARLTGGAVQTNAQGQMLYAEHHFQQGGCLITTSMHRQAGTQRESVQVISDGACYHITDMRQWQQASAGQVISQPAPGWQTTLEQRGFTGAVHHFIEAVSNQTRPQVSGEDAIVAQRMIERILQQ,not soluble
4,MKHYLAIDIGGTAIKYGLISETGDLLEKEEMATEAYKGGPSILEKVKGLVKTYQDQMDLAGVAISSAGMVNPDEGEIFYAGPQIPNYAGTQFKKEIEETFGLPCEVENDVNCAGLAEAISGSAKDYPVALCLTIGTGIGGCLLFNSQVFHGSSHSACEVGYLHLSDGQFQDLASTTALVQEVVLAYGDDISQWDGRRIFEQAKAGDAICIAAISKQVDYLGQGIANICYVVNPNVVVLGGGIMAQKDYLADKLKTALDSYLVSSLAKKTQLKFASHGNNAGILGAYYHFKQKNERSCSFITLEKIENNLASS,not soluble
5,MKIALIGASGYVGSALLKEALSRGHHVTALVSRPERIAAQANLAAAKVDVQDSAQLAEQLKGFDAVLSAFSGHAQAEQFDYFVKGIRSIIAAAKAAQAPRLLVVGGAGSLEVAPGVQLVDTPEFPEQWKASALGAREALNLLRAETELNWTLLSPSAMLQPGQRTGQFRLGKDQLLVDAEGNSHISVEDYAVAMIDELEKGEHQRSRFTVGYLEHHHHHH,soluble
6,MKIEEEFISASVNPRSHCLTACKTAPLVAYASSLQIAVQTIPKDDSEVGVIKSTSERRHQKPITVLKRLKSSEIVADEFVTGGVDSRVVLWKLRGEHVEYVADLTGCDGSVGSVCGCVEDGRKVVAAAWVSETSNGFHAWWTSSIGDLLNSTEIKLDHKAFALCLDAISIQNSVLLAVGTSKRFVELYGESADKKSFSRLISVAGHTDWIHSIAFNDNPDHLLVASAGQDTYVRLWAIEPETDEKSENIREDSSTTPPDELTSSANLFSINYTPYRCSSHAVMQGHDDWVHSTVWSNDGRVLLTASSDKTCIIWKEIDNLWRDDVRLGIVGGGQAAGFFAAVFSSSLDLKDSGEKNAENVVISSSYFGGLHCWKSTDEQKTFWTALPMTGGHVGEVRDVDWHRSDDGDSGFLMSVGQDQTTRVFAKNGRQQSYVEIARPQVHGHDMQCLSFVNPSIFVSGAEEKVFRAFRAPKSFVKSLEAISGVPTEKSFGDSDLAEFGACVPALGLSNKPMVEGETVDGEHWEEDAFRAAPVVLTSPPTEDTLQQNTLWPEQHKLYGHGYEVYAVTANPTGNVLATACKSSHVEHSVVMLWSTSNWSKKSEIIGHQLTVTQIAWNPSGTRLLTVSRDRTAKLYTEKNGEVDGFDYDCVWTSGKQHTRIIWACDWIDDEHFVTASRDQKVIVWAESAGQTAPKATVKLDEPVTAIAAVSKDVIVAGLQTGELIVLRFDSEGLHVIEKIGANRIPIDSAVLRLRFSKNGRKLAVATTDAKLRIFNVSQ,not soluble
7,MKIGIVGLGRVGSSTAFALLMKGFAREMVLIDVDKKRAEGDALDLIHGTPFTRRANIYAGDYADLKGSDVVIVAAGVPQKPGETRLQLLGRNARVMKEIARNVSKYAPDSIVIVVTNPVDVLTYFFLKESGMDPRKVFGSGTVLDTARLRTLIAQHCGFSPRSVHVYVIGEHGDSEVPVWSGAMIGGIPLQNMCQVCQKCDSKILENFAEKTKRAAYEIIERKGATHYAIALAVADIVESIFFDEKRVLTLSVYLEDYLGVKDLCISVPVTLGKHGVERILELNLNEEELEAFRKSASILKNAINEITAEENKHQNTSG,soluble
8,MKIIAFYLPQFHQIKENDRWWGKGFTEWTNTKSAQPLFSGHYQPREPYQDFYYDLTTPSVRKWQAEIAKAYGIYGFCYYHYWFKGKRLLETPFNEVLKMKEPDFPFCLSWANEPWTKSWDGLDKHILMPQDYGDISDWKEHFDYLLQAFQDERYIYIDDKPLFIIYRPGHIPDCEKMLNYWNALARANGLKGIYFAETLNSFPLPNINGFDASIQFEPFYTIAHDSSSDINKVIYDSDMQLNVWDYDKVWMYILQRSLPKKKTFPGAFVDWDNTARRKNANSSIFVGSTPEKFTIYLSKQIHRTYSFYNSEFLFINAWNEWAEGTYLEPDKKYGFSYLEGVKNAIDRGMKAYKKDESFLEHHHHHH,not soluble
9,MKIIAYGARVDEIQYFKQWAKDTGNTLEYHTEFLDENTVEWAKGFDGINSLQTTPYAAGVFEKMHAYGIKFLTIRNVGTDNIDMTAMKQYGIRLSNVPAYSPAAIAEFALTDTLYLLRNMGKVQAQLQAGDYEKAGTFIGKELGQQTVGVMGTGHIGQVAIKLFKGFGAKVIAYDPYPMKGDHPDFDYVSLEDLFKQSDVIDLHVPGIEQNTHIINEAAFNLMKPGAIVINTARPNLIDTQAMLSNLKSGKLAGVGIDTYEYETEDLLNLAKHGSFKDPLWDELLGMPNVVLSPHIAYYTETAVHNMVYFSLQHLVDFLTKGETSTEVTGPAK,soluble
10,MKIIIIGGVAGGATTAARIRRTNEAAEIILLEKGKYISYANCGLPYYIGGVIKEREKLFVQTPEAFSTRFRVDVRTENEVIFIDRKRKTVTVRQSSGDTYEESYDKLLISTGASPVRPPLPGIDLNGIFTLRNVADTDRIKEYINSHAPRKAVVIGAGFIGLEMAENLHAQGAKVSIVEMGNQVMAPIDFSMASLVHQHLMDKGVNLYLEQAVASFERDGKGLKVIFKNGQSISADIVILSIGVRPETTLARAAELKIGEAGGIAVNDYLQTSDESIYAIGDAIEFRHPITGKPWLNYLAGPANRQGRIVADNIQGAHIPYEGAIGTSIAKVFDMTVASTGLPGKRLRQAEINYMSSTIHPSSHAGYYPDAMPMSIKITFDPKTGKLYGGQIVGYDGVDKRIDEIALVIKHEGTIYDLMKVEQAYAPPFSSAKDPVAVAGYVAENIITGKVQPVYWRQLRDIEMENNFLLDVRTPDEFSLNTLPGAVNIPLDELRDRLDELPKDKMIYTFCAVGLRGYLAYRILVQHGFEKVRNLSGGLKTYHAAAAPIILREESENEVPAQPNANIQQPADAQPQKTVSPVEAVKTIRVDACGLQCPGPILKMKKTMDSLVSGDRVEITSTDPGFPRDAAAWCNSTGNQLISKETAGGKSVVVIEKGEPKSCNIVTSCEGKGKTFIMFSDDLDKALATFVLANGAAATGQKVTIFFTFWGLNVIKKLHKPNVEKDIFGKMFGMMLPSSSRKLKLSKMSMGGIGGKMMRYIMNRKGIDSLESLRQQALENGVEFIACQMSMDVMGVKQEELLDEVTIGGVATYMERADNANINLFILEHHHHHH,not soluble
11,MKIISFVLPCLLVLAGCSTPSQPEAPKPPQIGMANPASVYCQQKGGTLIPVQTAQGVSNNCKLPGGETIDEWALWRRDHPAGEKLEHHHHHH,not soluble
12,MKIKAIEPTPSPNTMKVILNEVLPSGARNNYTNENKEQAPMQVQEILKIEGIKGVYHVADFLAVERNAKYDWKVLLQQVRAVFGEEVLEESEEQQLAHFGEVKVFVQMFFTIPMQVKLTDGTTEERVGLPDRFKESIMKVQMSAPNVVKERKWVEQSTRYGNFEEIGKEVVEEIVAAYSEERVNETVKELLNQAGAVEVTIQKREPYKVTEEMMKDSDWKNRFAALEQMDPTEEDIPVLKMALDDEKVSIRRLATAYLGMVKGDEVLPLLYKALLDRSVSVRRTAGDCLSDVGDPAAMFVMIKSLKDPSKLVRWRAAMFLFELGDESAIPALKAAQDDPEFEVAMQARLALERIEGGEEAKGSVWKQMTESRKGE,not soluble
13,MKILGISGSPRKEGTHFAVNYALDYLKEKGFETKYISVFQKKIEFCIHCDYCLRTKEGCVHKDSMQEIYNGLKWADAVILGSPCYNGTVSGQLKTIMDRCRAIFAEDIDVLRNKYGMALSVGGDRNGGQEVVLKTIHDFYILNGVIPVSGGSFGSNLGATFWSQDNGKKGVEEDTEGIRTLKRTLKKFYNCLNEEGELEHHHHHH,not soluble
14,MKILITGGSGLVGRQLTKSLQAQNIEVTWLSRTKGVKDGIKSFLWDYKKGYIEEEAFDGVTHIVHLAGAGVFDKRWTKSYKKEIFDSRILTTKLLVEKALKLNGLEAFISGSAIGIYGNSMNSVPLTETALYGNDYLAQVTKEWEAATVPLENSSIRLAIIRTGIVLSEHGGALPAMINPIKAYIGSPLASGEQIISWIHIDDLCRIFSKAITDDAIKGTYNGVAPEPVTNKVLTQTAAAILHKPLVMPNVPSFALNILLGKEKAASVVEGIAVSAEKISATGFTFTYPYIKKALSDLLLEHHHHHH,not soluble
15,MKINRKGGLFLLMFLFLLTGCWDRRELEHVLFINTLGIDFKDNHYIIYPQFINFTNMAKQEGPANRNYSPAYIGKGEGKLLYDAAFDFYKSSQQKVSWEHIKSIVVTERFLKNGNLNQLNDFLSRFFQFRNTMWVFGTKEPLENILATNNIFNISSLYTIMNLPQETIRQSASVDPLRLYTFRSNYYEPGMTTRIPFLATTTEHWKQGHKAFWMLEFNEYGCIAAKSYVNHLNDSDIAGVRWTNKNTNRAPLLLKVKNRAIGELILKKPKIDTKVSIEKGKPHIVMNISLEGDIYQLMKPMPVHKVKKTLRISLKKK,not soluble
16,MKIPSLQSNFNFSAPAGYSAPIAPNRAENAYADYVLDIGKRIPLSAADLSNVYESVIRAVHDSRSRLIDQHTVDMIGNTVLDALSRSQTFRDAVSYGIHNEKVHIGCIKYRNEYELNEESSVKIDDIQSLTCNELYEYDVGQEPIFPICEAGENDNEEPYVSFSVAPDTDSYEMPSWQEGLIHEIIHHVTGSSDPSGDSNIELGPTEILARRVAQELGWSVPDFKGYAEPEREAHLRLRNLNALRQAAMRHEENERAFFERLGTISDRYEASPDFTEYSAVSNIGYGFIQQHDFPGLAINDNLQDANQIQLYHGAPYIFTFGDVDKHNQQ,soluble
17,MKIRTSMIALSLAALLSGCQSLNTEGLMQSGAQAFQAATLNDADVKALSEKSCVEMDQKAQIASADSQYGKRMAKIAAALGDNINGTPANYKVYVTKDVNAWAMANGCIRVYSGLMDMMTDNEVEGVVGHEMGHVALGHTRKAMQVAYGTTALRTAIASAGGVVGTLSQSQLADLGEKLVNAQFSQKQESEADDYSFDLLKKRGIDPNGLVTSFEKLASMEAGRNSSMFDDHPSSQARAEHIRQRIAAEK,not soluble
